# Patent publication US20230181671A1 (published 2023)
# Biological target: T1, human LPAR1 (full length LPAR1, SEQ ID NO: 62) (human, UniProt Q92633 1-364)
# T1 construct: Also used here for hLPAR1 in HEK293 cells (method 1.15); also called Lysophosphatidic Acid Receptor 1; LPA1
# Assay: transient-transfection CIFAT (protocol 1.11) on CHO-K1 cells expressing human LPAR1 and alanine variants
# Description: (§1) CHO-K1 cells were seeded in clear 96-well plates at 20,000 cells per 200 μL full growth medium and incubated for 24 hours at 37° C. The following day, in a sterile tube, 0.0309 uL/well PEI (Generon, MW 160,000) was diluted into 10 uL/well transfection medium (DMEM supplemented with 2 mM L-glutamine and Penicillin-Streptomycin). The diluted PEI was added to 100 ng/well DNA encoding the target protein (human LPAR1 (SEQ ID NO: 62) unless otherwise stated), before vortexing immediately and incubating the mixture for 10 minutes at room temperature. 200 μL/well full growth medium was added to the PEI-DNA mixture, then medium in wells was taken off and 200 ul full growth medium/PEI/DNA mixture was added in the wells of the adherent cell plate. […] After washing and cell fixation with 4% PFA, the binding of the antibodies was detected using a goat anti-human Alexa Fluor 488 detection antibody (Invitrogen), incubated for 1 hour at room temperature. Fluorescence at 488 nm was measured using a BMG LABTECH ClarioStar plate reader and microscopy images were taken at 10× magnification.
# Based on the epitope analysis presented in FIGS. 3 and 4, constructs were designed to test the important residues/interaction regions predicted in silico. […] CHO-K1 cells were transiently transfected with these plasm ids and the binding of an anti-LPAR1 mAb assessed to each of these receptor variants using protocol 1.11. […]
# T1 sequence (Q92633 whole entry): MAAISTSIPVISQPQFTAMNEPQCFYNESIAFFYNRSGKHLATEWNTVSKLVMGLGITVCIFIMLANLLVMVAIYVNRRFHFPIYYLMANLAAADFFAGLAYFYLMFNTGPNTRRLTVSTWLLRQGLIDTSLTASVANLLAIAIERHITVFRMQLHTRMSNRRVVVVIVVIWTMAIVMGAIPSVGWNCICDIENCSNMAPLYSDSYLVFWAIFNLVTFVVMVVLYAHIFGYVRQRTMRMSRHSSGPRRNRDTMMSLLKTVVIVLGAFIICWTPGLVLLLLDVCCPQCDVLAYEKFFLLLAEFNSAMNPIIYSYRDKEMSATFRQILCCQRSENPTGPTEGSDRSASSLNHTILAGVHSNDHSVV
row,binding result,Binder
1,binds,"anti-LPAR1 mAb with the VH of SEQ ID NO: 369 and VL of SEQ ID NO: 39 (antibody, IgG1, V domains shown, also called huVH4_Q61A97A99G104 (VH); 11 VL) VH: QVQLVQSGSELKKPGASVKVSCKASGYTFTSSGISWVRQAPGQGLEWMGEILPRSGYTNYNQGFTGRFVFSADKSVSTAYLQISSLKAEDTAVYYCARDFASARYAMDYWGQGTTVTVSS VL: SIQMTQSPSSLSASVGDRVTITCQASQSVRYNVAWYQQKPGKAPKLLIYYASNRYTGVPSRFSGSGSGTDFTFTISSLQPEDIATYFCQHHYSSPLTFGGGTKLEIK"

# Biological target: T2, LPAR1 (on CHO cells; species not stated) (UniProt Q92633 1-364)
# T2 construct: whole, on cells; also called CHO-LPAR1 cells
# Assay: KinExA (method 1.14), monomeric Fab as constant binding partner, CHO-LPAR1 cells titrated
# Description: The monomeric affinity constant KD for the interaction of antibodies with LPAR1 was determined using monomeric Fabs derived from the antibodies, using the KinExA method. In this method, the concentration of unbound antibody is measured against a range of antigen concentrations. Because KD=([Free antigen][Free antibody])/[Antigen-antibody complex], the value of KD can be deduced from these measurements. CHO-LPAR1 cells, the antigen source, are titrated in a background of constant binding partner (CBP, e.g. a Fab to be tested). Samples are gently rocked until equilibrium is reached. After incubation, cells are centrifuged and the free CBP is removed without disturbing the cell pellet. Beads coated with Anti-Species are used to capture a portion of free CBP. Captured CBP is detected with a fluorescently labelled Anti-CBP using the KinExA. The fluorescent signal is converted to a voltage signal that is directly proportional to the concentration of free CBP in the equilibrated sample.
# T2 sequence (Q92633 whole entry): as the sequence (Q92633 whole entry) above
row,Kd,Binder
1,0.824 nM,"Antibody 15, monomeric Fab (Fab, V domains shown) VH: QVQLVQSGSELKKPGASVKVSCKASGYTFTSSGISWVRQAPGQGLEWMGEILPRSGYTNYNQGFTGRFVFSADKSVSTAYLQISSLKAEDTAVYYCARDFKGGRYAMDYWGQGTTVTVSS VL: SIQMTQSPSSLSASVGDRVTITCQASQSVRYNVAWYQQKPGKAPKLLIYYASNRYEGVPSRFSGSGSGTDFTFTISSLQPEDIATYFCQHHYSSPLTFGGGTKLEIK"
2,0.824 nM,"Antibody 16, monomeric Fab (Fab, V domains shown, Same VH and VL as Antibody 15; The two antibodies differ only in the silencing mutations of the heavy chain constant region) VH: QVQLVQSGSELKKPGASVKVSCKASGYTFTSSGISWVRQAPGQGLEWMGEILPRSGYTNYNQGFTGRFVFSADKSVSTAYLQISSLKAEDTAVYYCARDFKGGRYAMDYWGQGTTVTVSS VL: SIQMTQSPSSLSASVGDRVTITCQASQSVRYNVAWYQQKPGKAPKLLIYYASNRYEGVPSRFSGSGSGTDFTFTISSLQPEDIATYFCQHHYSSPLTFGGGTKLEIK"
3,1 nM,"Antibody 17, monomeric Fab (Fab, V domains shown) VH: QVQLVQSGSELKKPGASVKVSCKASGYTFTSSGISWVRQAPGQGLEWMGEIQPRSGYTNYNQGFTGRFVFSADKSVSTAYLQISSLKAEDTAVYYCARDKGPARYTMDYWGQGTTVTVSS VL: SIQMTQSPSSLSASVGDRVTITCQASQSVRYNVAWYQQKPGKAPKLLIYYASNRYEGVPSRFSGSGSGTDFTFTISSLQPEDIATYFCQHHYSSPLTFGGGTKLEIK"
4,1.39 nM,"Antibody 18, monomeric Fab (Fab, V domains shown) VH: QVQLVQSGSELKKPGASVKVSCKASGYTFTSSGISWVRQAPGQGLEWMGEIQPRSGYTNYNQGFTGRFVFSADKSVSTAYLQISSLKAEDTAVYYCARDKGPARYTMDYWGQGTTVTVSS VL: SIQMTQSPSSLSASVGDRVTITCQASQSIRYNVAWYQQKPGKAPKLLIYYASNRYEGVPSRFSGSGSGTDFTFTISSLQPEDIATYYCQHHYSSPLTFGGGTKLEIK"
5,0.993 nM,"Antibody 13, monomeric Fab (Fab, V domains shown) VH: QVQLVQSGSELKKPGASVKVSCKASGYTFTSSGISWVRQAPGQGLEWMGEILPRSGYTNYNQGFTGRFVFSADKSVSTAYLQISSLKAEDTAVYYCARDKGPSRYTMDYWGQGTTVTVSS VL: SIQMTQSPSSLSASVGDRVTITCQASQSVRYNVAWYQQKPGKAPKLLIYYASNRYDGVPSRFSGSGSGTDFTFTISSLQPEDIATYFCQHHYSSPLTFGGGTKLEIK"
6,1.28 nM,"Antibody 12, monomeric Fab (Fab, V domains shown) VH: QVQLVQSGSELKKPGASVKVSCKASGYTFTSSGISWVRQAPGQGLEWMGEILPRSGYTNYNQGFTGRFVFSADKSVSTAYLQISSLKAEDTAVYYCARDFKGGRYAMDYWGQGTTVTVSS VL: SIQMTQSPSSLSASVGDRVTITCQASQSVRYNVAWYQQKPGKAPKLLIYYASNRYDGVPSRFSGSGSGTDFTFTISSLQPEDIATYFCQHHYSSPLTFGGGTKLEIK"

# Biological target: T1, human LPAR1 (full length LPAR1, SEQ ID …)
# Assay: transient-transfection CIFAT (method 1.11), fixed/permeabilised and live cells expressing LPAR1, microscopy
# Description: as §1, with “plate. The plate was incubated for 24 hours at 37° C. The next day, the medium was discarded and replaced with 200 μL full growth medium. The plate was incubated for 24 hours at 37° C.” for “plate.”, “magnification. […]” for “magnification.”
row,binding result,Binder
1,binds,"Antibody 4 (antibody, IgG1, V domains shown) VH: QVQLQQSGAELARPGASVKLSCKASGYTFTSSGISWVKQRTGQGLEWIGEIYPRSGYTNYNEKFKGKASLTADKSSRTAYMELRSLTSEDSAVYFCARDYDNSRYALDYWGQGTSVTVSS VL: SIVMTQTPKFLPVSAGDRVTMTCKASQSVGYNVAWYQQKTGQSPKLLIYYASNRYTGVPDRFTGSGSGTDFTFTISSVQVEDLAVYFCQHHYSSPLTFGAGTKLELK"
2,binds,"63D8 (antibody, IgG1, V domains shown, First found as a mouse hybridoma antibody) VH: EVKLLESGGGLVQPGGSLKLSCTASGFDFSRYWMSWVRQAPGKGLEWIGEINPSRSAINYSPSLKDKFIISRDNAKNTLYLQMSKVRSEDTALYYCARQGQRLRYGMDYWGQGTSVTVSS VL: DIVMTQSPNFMSTSVGDRVSVTCRASQDVRTAVAWYQQKPGRSPKLLIYWTSTRHTGVPDRFTGSGSGTDYTLTISSVQAADLALYYCQQHYGTPLTFGAGTNLELK"
